Data published in US20160222395.

Key:
[1] = system: ALS2_T1 TALE nuclease left subunit (synthetic construct); assay: cell_activity; conditions: yeast beta-galactosidase recombination assay, 37 C, as pair with right subunit; 0.86 (0.02) at 30 C; also cleaves in N. benthamiana leaves (T7EI)
[2] = system: ALS2_T1 TALE nuclease right subunit (synthetic construct); assay: cell_activity; conditions: yeast beta-galactosidase recombination assay, 37 C, as pair with left subunit; 0.86 (0.02) at 30 C; also cleaves in N. benthamiana leaves (T7EI)

Sequence | activity (relative to I-SceI (max 1.0)) [1] | activity (relative to I-SceI (max 1.0)) [2]
TAGCTTGTTCCACATTT (double strand) [ALS2_T1 left target half-site] | 0.97 | 
ACAGTACGACCCAGTCT (double strand) [ALS2_T1 right target half-site] |  | 0.97
